Measured values published in PMC10871369 (bioRxiv, 2024).
Values belong to the molecule of their own block, whether it stands above or below them.

Key:
B55 [1] = assay: Binding of proteins to panel of purified B55 mutants; conditions: panel of B55 mutants covering patch 1-3 residues
B55 [2] = assay: MS of B55 WT, V228A, I284A, S287A and D340A immunopurifications; assay type: binding; conditions: B55 S287A vs WT immunopurifications

B1: CDCA4: helix-loop-helix B55 binder (SERTA domain) (protein, UniProt Q9BXL8 1-241, looked up)
Cell division …: MFARGLKRKCVGHEEDVEGALAGLKTVSSYSLQRQSLLDMSLVKLQLCHMLVEPNLCRSVLIANTVRQIQEEMTQDGTWRTVAPQAAERAPLDRLVSTEILCRAAWGQEGAHPAPGLGDGHTQGPVSDLCPVTSAQAPRHLQSSAWEMDGPRENRGSFHKSLDQIFETLETKNPSCMEELFSDVDSPYYDLDTVLTGMMGGARPGPCEGLEGLAPATPGPSSSCKSDLGELDHVVEILVET
B55 patch requirement for binding (B55 [1]): requirements from residues in patch 1 and 3

requirement of B55 S287 (patch 2) for binding (B55 [2]): does not
B2: IER2: helix-loop-helix B55 binder (protein, UniProt Q9BTL4 1-223, looked up)
Immediate early response gene …: MEVQKEAQRIMTLSVWKMYHSRMQRGGLRLHRSLQLSLVMRSARELYLSAKVEALEPEVSLPAALPSDPRLHPPREAESTAETATPDGEHPFPEPMDTQEAPTAEETSACCAPRPAKVSRKRRSSSLSDGGDAGLVPSKKARLEEKEEEEGASSEVADRLQPPPAQAEGAFPNLARVLQRRFSGLLNCSPAAPPTAPPACEAKPACRPADSMLNVLVRAVVAF
B55 patch requirement for binding (B55 [1]): requirements from residues in patch 1 and 3
